The record followed here is article PMC8396345, “Target Affinity and Structural Analysis for a Selection of Norovirus Aptamers”.

For data set [1], the target named is T1, norovirus GI.1 VLP (major capsid protein VP1) (Norovirus GI.1, UniProt Q83884 1-530). Briefly: filter binding; <10% bound at 1500 nM; FRA: 1 nM 32P-aptamer, 0-1500 nM VLP, 60 min, each aptamer's original selection buffer (M1, M6-2, SMV19, SMV21: PBS pH 7.4; others in Table S1, not in material); FRA temperature not stated; pull-down at room temperature. To be noted: protein: recombinant; chain copies: 180; label: 5'-32P (FRA); B-DNA-like CD.

The target in data set [2] is T1, norovirus GI.1 VLP (major capsid …). Put plainly: filter binding; Kd not determined; FRA: 1 nM 32P-aptamer, 0-1500 nM VLP, 60 min, each aptamer's original selection buffer (M1, M6-2, SMV19, SMV21: PBS pH 7.4; others in Table S1, not in material); FRA temperature not stated; pull-down at room temperature. As to conditions: protein: recombinant, chain copies: 180, label: 5'-32P (FRA).

T1 sequence (Q83884 whole entry): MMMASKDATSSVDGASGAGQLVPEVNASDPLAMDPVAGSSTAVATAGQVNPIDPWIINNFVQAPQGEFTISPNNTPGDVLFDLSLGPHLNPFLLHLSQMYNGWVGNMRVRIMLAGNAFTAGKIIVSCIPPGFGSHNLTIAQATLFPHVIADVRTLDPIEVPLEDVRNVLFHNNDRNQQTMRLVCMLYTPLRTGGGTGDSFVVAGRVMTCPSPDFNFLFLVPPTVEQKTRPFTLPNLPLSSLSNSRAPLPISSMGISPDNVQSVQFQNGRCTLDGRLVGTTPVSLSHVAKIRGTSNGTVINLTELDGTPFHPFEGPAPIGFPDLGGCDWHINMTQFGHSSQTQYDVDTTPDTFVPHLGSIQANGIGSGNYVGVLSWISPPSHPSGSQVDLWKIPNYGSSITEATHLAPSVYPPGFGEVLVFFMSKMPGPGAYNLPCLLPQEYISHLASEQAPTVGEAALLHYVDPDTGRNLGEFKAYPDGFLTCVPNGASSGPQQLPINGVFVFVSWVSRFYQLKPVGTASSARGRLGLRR

In the case of TGTTTATGGGGATAAACGTATCTAATTCGTGTACTAATCA (ssDNA) [M1], in data set [1], the binding result is “no binding”.

B1: AG3 (ssDNA)
DNA: GCTAGCGAATTCCGTACGAAGGGCGAATTCCACATTGGGCTGCAGCCCGGGGGATCC
Regarding B1, the binding result in data set [2] (B-DNA-like CD) was “no binding”.

Turning to GTCTGTAGTAGGGAGGATGGTCCGGGGCCCCGAGACGACGTTATCAGGC (ssDNA) [Beier], in data set [2] (B-DNA-like CD), the binding result is given as “no binding”.

Turning to TGGGAAGAGGTCCGGTAAATGCAGGGTCAGCCCGGAGAG (ssDNA) [M6-2], in data set [1], the binding result is “no binding”.

On to CACCAGTGTGTTGAGGTTTGAGCACACTGATAGAGTGTCA (ssDNA) [SMV19], for which, in data set [2] (B-DNA-like CD), the binding result was “no binding”.

GAAATTGGGTTCGGGTTTGGGTTGGGATTACTTAGCGATG (structured_DNA) [Buf-2]: in data set [2] (inter- or intramolecular not resolved), the binding result is “no binding”.

Turning to CCATGTTTTGTAGGTGTAATAGGTCATGTTAGGGTTTCTG (ssDNA) [SMV21], the binding result in data set [2] (B-DNA-like CD) is recorded as “no binding”.
